From patent publication US20260008848A1, “ANTI-NECTIN-4 ANTIBODY, AND ANTIBODY-DRUG CONJUGATE AND USE THEREOF” (Bio-Thera Solutions, Ltd., priority 2022, published 2026)

T1: human Nectin-4 extracellular antigen (Nectin-4-His) (Homo sapiens, UniProt Q96NY8)
T1 construct: albumin signal peptide (replaces the native Nectin-4 signal peptide) (N); made in house
T1 sequence (Q96NY8 with tags, fused parts or gaps): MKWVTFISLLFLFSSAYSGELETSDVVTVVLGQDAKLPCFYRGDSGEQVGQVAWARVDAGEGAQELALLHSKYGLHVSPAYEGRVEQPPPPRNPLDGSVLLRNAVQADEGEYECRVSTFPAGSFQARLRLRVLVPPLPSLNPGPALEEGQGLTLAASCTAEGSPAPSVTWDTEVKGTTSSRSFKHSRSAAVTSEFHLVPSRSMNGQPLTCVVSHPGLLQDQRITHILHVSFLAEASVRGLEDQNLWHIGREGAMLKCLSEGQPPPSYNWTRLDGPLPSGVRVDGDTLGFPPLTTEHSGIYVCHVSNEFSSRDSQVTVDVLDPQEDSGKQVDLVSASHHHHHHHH

T2: Nectin-4 on T-47D cells (human ductal breast carcinoma cells) (human, UniProt Q96NY8 32-510)
T2 construct: whole, on cells; that is inferred from the antibodies' specificity
T2 sequence (looked up): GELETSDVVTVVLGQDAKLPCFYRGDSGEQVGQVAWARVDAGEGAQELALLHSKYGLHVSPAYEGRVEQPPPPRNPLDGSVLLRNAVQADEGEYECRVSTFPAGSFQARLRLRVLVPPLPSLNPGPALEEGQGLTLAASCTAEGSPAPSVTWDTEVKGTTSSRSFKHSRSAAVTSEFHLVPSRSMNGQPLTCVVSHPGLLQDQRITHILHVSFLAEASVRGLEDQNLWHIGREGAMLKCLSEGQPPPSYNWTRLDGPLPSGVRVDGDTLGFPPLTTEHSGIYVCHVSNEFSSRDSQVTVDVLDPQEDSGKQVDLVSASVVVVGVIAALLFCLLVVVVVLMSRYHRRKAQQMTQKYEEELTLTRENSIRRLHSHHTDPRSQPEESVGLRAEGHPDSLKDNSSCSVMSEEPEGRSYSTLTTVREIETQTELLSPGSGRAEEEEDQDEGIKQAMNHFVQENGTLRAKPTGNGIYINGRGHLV

T3: human Nectin-4 extracellular antigen Nectin-4-His (human, UniProt Q96NY8 32-349)
T3 construct: the secreted protein in the assay lacks the signal peptide
T3 sequence: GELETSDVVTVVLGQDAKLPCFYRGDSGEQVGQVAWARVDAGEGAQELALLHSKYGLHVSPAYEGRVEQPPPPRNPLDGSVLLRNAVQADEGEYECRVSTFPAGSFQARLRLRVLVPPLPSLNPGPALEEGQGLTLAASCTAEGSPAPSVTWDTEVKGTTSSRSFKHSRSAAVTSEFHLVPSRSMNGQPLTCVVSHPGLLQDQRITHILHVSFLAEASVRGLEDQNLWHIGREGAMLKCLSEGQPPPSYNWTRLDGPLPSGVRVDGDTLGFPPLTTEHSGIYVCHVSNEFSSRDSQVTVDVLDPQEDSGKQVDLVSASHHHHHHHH

B1: reference antibody ASG-22 (antibody, human IgG1, kappa, V domains shown)
VH: EVQLVESGGGLVQPGGSLRLSCAASGFTFSSYNMNWVRQAPGKGLEWVSYISSSSSTIYYADSVKGRFTISRDNAKNSLSLQMNSLRDEDTAVYYCARAYYYGMDVWGQGTLVTVSS
VL: DIQMTQSPSSVSASVGDRVTITCRASQGISGWLAWYQQKPGKAPKFLIYAASTLQSGVPSRFSGSGSGTDFTLTISSLQPEDFATYYCQQANSFPPTFGGGTKVEIKR
notes: Expressed in HEK293F cells
B2: anti-Nectin-4 antibody ASG-AM (antibody, human IgG1, kappa, V domains shown)
VH: B1 VH
VL: DIQMTQSPSSVSASVGDRVTITCRASQGISGWLAWYQQKPGKAPKFLIYAASTLQSGVPSRFSGSGSGTDFTLTISSLQPEDFATYYCQQAGPGWVFGQGTKVEIKR
notes: Expressed in HEK293F cells

What was measured:
T-47D cells [1] = experiment: Endocytosis assay by FACS (antibody remaining on cell surface); format: cell-based, human; settings: 10 μg/mL antibody
Method: The relative quantity of antibodies remaining on the cell surface after incubation at 37° C. for a certain period was detected by FACS to reflect the efficiency of endocytosis. The method is briefly described as follows: T-47D cells (human ductal breast carcinoma cells, sourced from the Cell Bank of the Chinese Academy of Sciences, Cat. No.: TCHu 87) were used. Each test antibody was adjusted to a concentration of 10 μg/mL and co-incubated with cells (at a density of 0.5×10^6 cells/mL) on ice for 1 h for binding. The cells were washed thrice with pre-cooled PBS and then incubated at 37° C. for 0 h, 2 h, and 4 h. The endocytosis reaction was terminated with 0.2% N3Na, and the cells were washed thrice with PBS. Subsequently, a PE-labeled anti-human Fc secondary antibody (Invitrogen 12-4998-82) was added, and the cells were incubated at 4° C. for 30 min. The red fluorescence signal was detected by a flow cytometer.

[2] = target: T1, human Nectin-4 extracellular antigen (Nectin-4-His); experiment: Affinity measurement by SPR (BIAcore T200, Protein A chip capture); format: binding; settings: 1:1 model fit
Method: (§1) The candidate antibodies (ASG-22 and ASG-AM) were analyzed for their affinity for the human Nectin-4 extracellular antigen using surface plasmon resonance (SPR) technology (BIAcore: GE Healthcare, T200).
(§2) The capture was conducted on a Protein A chip (Cat #29127556, GE Healthcare): Antibody dilutions ([…]) were directed through the experimental flow channels (Fc2 and Fc4) at a flow rate of 10 μL/min for 10 s. Then antigen Nectin-4-His (prepared from Example 1) dilutions at different concentrations (0 nM, 1.23 nM, 3.7 nM, 11.1 nM, 33.3 nM, and 100 nM) were sequentially introduced with the flow rate adjusted to 30 μL/min through the surfaces of the experimental flow channels (Fc2 and Fc4) and reference flow channels (Fc1 and Fc3) with 120 s of association and 180 s of dissociation. Finally, the chip regenerated in Glycine 1.5. Fitting and analysis were performed using BiaEvaluation 3.2, with a 1:1 model for the fitting.

T-47D cells [3] = experiment: Binding of antibody to T-47D cells by FACS; design: species or system human; settings: 3-fold dilutions from 100 nM, 4° C.
Method: (§3) The binding activity of antibody ASG-AM to T-47D cells (human ductal breast carcinoma cells, sourced from the Cell Bank of the Chinese Academy of Sciences, Cat. No.: TCHu 87) was detected by FACS and compared with that of the reference antibody ASG-22. The EC50 of the binding of candidate antibodies to the cells was analyzed using the four-parameter method. The method is briefly described as follows: T-47D cells were digested with pancreatin. Each candidate antibody was serially 3-fold diluted from 100 nM and co-incubated with T-47D cells at 4° C. for 0.5-1 h. Subsequently, a PE-labeled anti-human Fc secondary antibody (Invitrogen, 12-4998-82) was added. The signal intensity of the red fluorescence was detected by a flow cytometer. Graphpad Prism was used for plotting and calculating the EC50.

[4] = target: T1, human Nectin-4 extracellular antigen (Nectin-4-His); experiment: Affinity measurement by BLI (Octet QKe, Protein A biosensor); format: binding
Method: (§4) The affinity of candidate antibodies (ASG-22 and ASG-AM) for the human Nectin-4 extracellular antigen was detected using the bio-layer interferometry (BLI) technology on the Octet platform (Fortebio, Octet QKe).
(§5) Antibodies were loaded onto a Protein A biosensor (Fortebio, 18-5010) at a concentration of 20 μg/mL with a loading time of 60 s. Nectin-4-His antigen concentrations were set at 200 nM, 100 nM, 50 nM, 25 nM, and 0 nM. The antigen association time was 180 s, and the dissociation time was 200 s. Data were then processed and analyzed using Acquisition 8.2 to give affinity constants (see Table 4).

[5] = target: T2, Nectin-4 on T-47D cells (human ductal …); experiment: FACS on T-47D cells, antibody 3-fold diluted from 100 nM, PE-labeled anti-human Fc secondary antibody, four-parameter fit
Method: as §3, with “EC₅₀” for “EC50”, “EC₅₀.” for “EC50.”

[6] = target: T3, human Nectin-4 extracellular antigen …; experiment: BLI (Octet QKe), antibody loaded on Protein A biosensor, Nectin-4-His in solution
Method: as §4, §5

[7] = target: T3, human Nectin-4 extracellular antigen …; experiment: SPR (BIAcore T200), antibody captured on Protein A chip, Nectin-4-His as analyte, 1:1 fit
Method: as §1, §2

| Molecule | red fluorescence signal at 0 h (T-47D cells [1]; 37° C. for 0 h) | Endocytosis at 2 h (T-47D cells [1]; 37° C. for 2 h) | red fluorescence signal at 2 h (T-47D cells [1]; 37° C. for 2 h) | Endocytosis at 4 h (T-47D cells [1]; 37° C. for 4 h) | red fluorescence signal at 4 h (T-47D cells [1]; 37° C. for 4 h) | Ka [2] | Rmax [2] | Kd ([2]; dissociation rate) | binding curves to T-47D cells (T-47D cells [3]) | Rmax [4] | kdis [4] | kon [4] | EC50 [5] | Kd [6] | koff [6] | kon [6] | Kd [7] | koff [7] | kon [7] |
| --- | --- | --- | --- | --- | --- | --- | --- | --- | --- | --- | --- | --- | --- | --- | --- | --- | --- | --- | --- |
| ASG-22: reference anti-Nectin-4 antibody; heavy chain SEQ ID NO: 12, light chain SEQ ID NO: 17 (Table 2) [reference compound] | 24098.3 | 53.46% | 11216.0 | 74.97% | 6033 | 606000 M⁻¹ s⁻¹ | 164.2 RU | 0.00523 s⁻¹ | substantially consistent | 0.5303 | 0.00162 s⁻¹ | 113000 M⁻¹ s⁻¹ |  |  |  |  |  |  |  |
| B1 |  |  |  |  |  |  |  |  |  |  |  |  | 0.752 nM | 14.3 nM | 0.00162 s⁻¹ | 113000 M⁻¹ s⁻¹ | 8.64 nM | 0.00523 s⁻¹ | 606000 M⁻¹ s⁻¹ |
| B2 |  |  |  |  |  |  |  |  |  |  |  |  | 0.726 nM | 0.266 nM | 2.38e-05 s⁻¹ | 89600 M⁻¹ s⁻¹ | 1.79 nM | 0.000535 s⁻¹ | 298000 M⁻¹ s⁻¹ |
